We go through five molecules from patent US20210115144A1 (Dana-Farber, published 2021).

B2: human HHLA2-mIgG2a fusion protein (Fc fusion, not shown: a dimerising Fc or GST)
chain: IFPLAFFIYVPMNEQIVIGRLDEDIILPSSFERGSEVVIHWKYQDSYKVHSYYKGSDHLESQDPRYANRTSLFYNEIQNGNASLFFRRVSLLDEGIYTCYVGTAIQVITNKVVLKVGVFLTPVMKYEKRNTNSFLICSVLSVYPRPIITWKMDNTPISENNMEETGSLDSFSINSPLNITGSNSSYECTIENSLLKQTWTGRWTMKDGLHKMQSEHVSLSCQPVNDYFSPNQDFKVTWSRMKSGTFSVLAYYLSSSQNTIINESRFSWNKELINQSDFSMNLMDLNLSDSGEYLCNISSDEYTLLTIHTVHVEPSQETASHN
notes: also called hHHLA2-mIgG2a; HHLA2-Fc

For assay [1], the target named is T1, human HHLA2 expressed on transfected cells (300.19 mouse pre-B cells; CHO cells) (human, UniProt Q9UM44 23-414).
T1 construct: also called B7-H7; B7H7
T1 sequence: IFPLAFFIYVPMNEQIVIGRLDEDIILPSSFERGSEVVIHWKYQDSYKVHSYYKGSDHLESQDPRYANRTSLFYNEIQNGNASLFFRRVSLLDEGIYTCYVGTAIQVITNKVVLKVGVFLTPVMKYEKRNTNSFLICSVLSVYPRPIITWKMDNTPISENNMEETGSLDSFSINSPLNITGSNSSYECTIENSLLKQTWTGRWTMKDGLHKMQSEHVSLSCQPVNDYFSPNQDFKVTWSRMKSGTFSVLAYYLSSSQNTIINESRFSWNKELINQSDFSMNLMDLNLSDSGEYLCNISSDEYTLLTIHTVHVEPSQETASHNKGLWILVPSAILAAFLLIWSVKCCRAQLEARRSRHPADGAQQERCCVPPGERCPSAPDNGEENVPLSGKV
In words: flow cytometry, staining and sorting of HHLA2-transfected 300.19 cells. As to the method:
In particular, binding affinity for each anti-HHLA2 antibody was assayed. The HHLA2 cDNA and a vector encoding puromycin resistance were co-transfected by electroporation (300 volts, 1600 microfarads) into mouse 300.19 cells and selected with media containing 5 μg/ml puromycin. Cells expressing HHLA2 were identified by staining with TMIGD2-human Fc fusion protein and goat anti-human Fc antibody conjugated to phycoerythrin and single cell sorted by flow cytometry. Expression of HHLA2 in individual clones was confirmed by flow cytometry as described above. HHLA2-transfected 300.19 cells were titrated with anti-HHLA2 mAbs (FIG. 1A).
For orientation: In flow cytometry, cells or beads pass a laser one at a time.

The target of another assay is T2, KIR2DL2 (human, UniProt P43627 22-348).
T2 construct: whole, on cells
T2 sequence (P43627 22-348): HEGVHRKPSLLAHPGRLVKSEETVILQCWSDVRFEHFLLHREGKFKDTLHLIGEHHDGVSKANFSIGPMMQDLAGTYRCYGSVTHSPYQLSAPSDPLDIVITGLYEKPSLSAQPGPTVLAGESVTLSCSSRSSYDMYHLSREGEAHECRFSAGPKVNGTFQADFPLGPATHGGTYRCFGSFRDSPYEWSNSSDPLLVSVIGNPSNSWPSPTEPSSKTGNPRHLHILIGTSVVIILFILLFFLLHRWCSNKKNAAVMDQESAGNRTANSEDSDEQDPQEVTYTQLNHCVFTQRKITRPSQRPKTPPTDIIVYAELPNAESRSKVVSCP
In words: cell microarray, HHLA2-mIgG2a on fixed transfected HEK293 cells, AF647 anti-mouse IgG detection. How it is done: (§1) Human HHLA2-mIgG2a fusion protein was added to slides of fixed, transfected HEK293 cell slides at a 20 ug/ml concentration, and the protein was detected with an AF647 labeled anti-mouse IgG detection antibody. Two replicate slides were screened for each of the 13 slide sets. Fluorescent images were analyzed and quantitated (for transfection efficiency) using ImageQuant software (GE). A protein ‘hit’ was defined as duplicate spots showing a raised signal compared to background levels. This was achieved by visual inspection using the images gridded on the ImageQuant software.
(§2) Addition of the AF647 labeled anti-mouse IgG detection antibody alone in the absence of HHLA2-mIgG2a produced no signal. The selectivity of HHLA2 binding to KIR3DL3 was evaluated using a panel of 14 KIR receptors arrayed on slides.

The target of a further assay is T3, KIR3DS1 (human, UniProt Q14943 22-382).
T3 construct: whole, on cells
T3 sequence (Q14943 22-382): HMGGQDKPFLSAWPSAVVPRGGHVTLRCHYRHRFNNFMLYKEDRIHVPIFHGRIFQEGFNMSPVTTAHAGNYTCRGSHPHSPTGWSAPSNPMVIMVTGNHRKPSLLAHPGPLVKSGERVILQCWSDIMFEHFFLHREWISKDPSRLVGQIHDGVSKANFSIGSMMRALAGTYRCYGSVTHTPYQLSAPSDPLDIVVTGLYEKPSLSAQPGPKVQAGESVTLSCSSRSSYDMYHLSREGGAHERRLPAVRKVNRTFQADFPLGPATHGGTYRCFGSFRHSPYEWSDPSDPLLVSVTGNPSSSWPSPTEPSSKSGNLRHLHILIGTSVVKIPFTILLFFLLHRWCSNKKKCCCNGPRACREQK
Described as above. As to the method: as §1, §2

A further assay addresses T4, KIR2DL1 (human, UniProt P43626 22-348).
T4 construct: whole, on cells
The description is as above. As to the method:
as §1, §2

For a further assay, the target named is T5, KIR2DL5A (human, UniProt Q8N109 22-375).
T5 construct: whole, on cells
T5 sequence (Q8N109 22-375): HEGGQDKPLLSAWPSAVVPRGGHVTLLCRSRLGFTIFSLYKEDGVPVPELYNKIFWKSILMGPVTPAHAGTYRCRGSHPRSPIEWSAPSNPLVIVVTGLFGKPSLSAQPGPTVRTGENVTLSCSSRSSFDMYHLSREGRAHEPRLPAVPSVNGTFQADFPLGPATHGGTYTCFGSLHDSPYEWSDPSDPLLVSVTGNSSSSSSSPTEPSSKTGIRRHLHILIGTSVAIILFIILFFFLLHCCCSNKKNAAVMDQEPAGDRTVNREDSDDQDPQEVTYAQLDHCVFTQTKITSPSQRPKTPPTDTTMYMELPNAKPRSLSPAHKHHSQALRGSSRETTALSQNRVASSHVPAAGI
The description is as above. How it is done:
as §1, §2

For the next assay, the target named is T6, KIR3DL2 (human, UniProt P43630 22-455).
T6 construct: whole, on cells
T6 sequence (P43630 22-455): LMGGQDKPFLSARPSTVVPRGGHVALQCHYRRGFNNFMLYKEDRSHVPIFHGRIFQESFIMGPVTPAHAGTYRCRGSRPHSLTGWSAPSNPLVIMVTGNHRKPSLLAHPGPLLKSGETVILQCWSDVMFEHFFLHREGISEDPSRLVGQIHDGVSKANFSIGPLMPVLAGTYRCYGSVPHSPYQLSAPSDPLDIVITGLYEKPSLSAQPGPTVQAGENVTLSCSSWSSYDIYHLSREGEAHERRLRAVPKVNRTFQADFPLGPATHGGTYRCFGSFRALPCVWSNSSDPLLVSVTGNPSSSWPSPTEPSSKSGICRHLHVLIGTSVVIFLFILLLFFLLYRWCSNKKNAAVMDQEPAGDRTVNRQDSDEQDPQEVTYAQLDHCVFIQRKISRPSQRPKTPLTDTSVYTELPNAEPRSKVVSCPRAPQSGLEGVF
The assay is described as above. How it is done:
as §1, §2

Another assay addresses T7, KIR2DL4 (human, UniProt Q99706 22-377).
T7 construct: whole, on cells
Described as above. As to the method: as §1, §2

The next assay concerns the target T8, KIR3DL1 (human, UniProt P43629 22-444).
T8 construct: whole, on cells
Described as above. How it is done: as §1, §2

A further assay has as its target T9, KIR2DL5B (human, UniProt Q8NHK3 22-375).
T9 construct: whole, on cells
The assay is described as above. How it is done: as §1, §2

Assay [2] addresses T10, human KIR3DL3 expressed on transfected cells (HEK293 microarray, 293T, 300.19) (human, UniProt Q8N743 26-410).
T10 construct: also called CD158Z; KIR3DL7
As to the kind of experiment: cell microarray, HHLA2-mIgG2a on fixed KIR-transfected HEK293 cells, AF647 anti-mouse IgG detection. As to the method:
as §1, §2

For assay [3], the target named is B2. As to the kind of experiment: cell microarray, soluble HHLA2-mIg fusion protein on transfected HEK293 cells.
Assay [4] deals with B2. In words: flow cytometry, mAb pre-incubated with 4 ug/ml HHLA2-mIgG2a; blockade of its binding to TMIGD2-transfected 293T cells. How it is done: (§3) HHLA2 mAb cell binding and receptor blockade experiments were then performed. […] HHLA2 mAb binding to transfected 300.19 cells was detected with PE-labeled goat anti-mouse IgG (H+L). For HHLA2 mAb blocking experiments different concentration of HHLA2 mAbs were pre-incubated with 4 ug/ml of HHLA2-mIgG2a at a 1:1 ratio for 30 minutes and added to either TMIGD2 or KIR3DL3 transfected 293T cells and incubated for 30 minutes at 4° C. HHLA2-mIgG2a binding to TMIGD2 or KIR3DL3 transfected 293T cells was detected with a PE labeled Fab2 goat anti-mIgG2a antibody. EC50 and IC50 analyses were conducted using Graph Pad Prism. It was shown that HHLA2 mAb clone 2C4 has desired properties of complete KIR3DL3 blockade and partial TMIGD2 blockade (Table 6).

Assay [5] has as its target T1, human HHLA2 expressed on transfected …. In words: flow cytometry, mAb titrated on HHLA2-transfected 300.19 pre-B cells, PE goat anti-mouse IgG. How it is done:
as §3

The target is the same in assay [6]. Described as above. As to the method:
(§4) Binding of different HHLA2 mAbs to human and cynomolgus monkey HHLA2 was also tested and EC50 binding analysis was conducted (FIGS. 13A and 13B). […] HHLA2 mAb binding to transfected 300.19 cells was detected with PE-labeled goat anti-mouse IgG (H+L). EC50 analysis was conducted using Graph Pad Prism.
This is another data set of the same source.

The target of assay [7] is B2. As to the kind of experiment: flow cytometry, mAb pre-incubated with 4 ug/ml HHLA2-mIgG2a; blockade of its binding to KIR3DL3-transfected 300.19 pre-B cells. How it is done:
(§5) HHLA2 mAb binding to transfected 300.19 cells was detected with PE-labeled goat anti-mouse IgG (H+L). […] EC50 and IC50 analyses were conducted using Graph Pad Prism. It was shown that HHLA2 mAb clone 2C4 has desired properties of complete KIR3DL3 blockade and partial TMIGD2 blockade (Table 7).

The target in assay [8] is T1, human HHLA2 expressed on transfected …. As to the kind of experiment: flow cytometry, mAb on HHLA2-transfected 300.19 mouse pre-B cells.
The target of assay [9] is T11, cynomolgus monkey HHLA2 expressed on transfected 300.19 pre-B cells (cynomolgus monkey).
T11 construct: whole, on cells
In words: flow cytometry, mAb titrated on cynomolgus monkey HHLA2-transfected 300.19 pre-B cells. How it is done: FIGS. 13A and 13B show HHLA2 mAb binding to human and cynomolgus monkey HHLA2. […] HHLA2 mAb binding to transfected 300.19 cells was detected with a PE-labeled goat anti-mouse IgG (H+L) by flow cytometry.
as §4

The target in assay [10] is T1, human HHLA2 expressed on transfected …. In words: flow cytometry, mAb titrated on human HHLA2-transfected 300.19 pre-B cells. How it is done:
as §4

Assay [11] has as its target B2. As to the kind of experiment: flow cytometry, mAb pre-incubated with 4 ug/ml HHLA2-mIgG2a; blockade of its binding to TMIGD2-transfected 300.19 pre-B cells. How it is done:
as §5

The target in assay [12] is B2. As to the kind of experiment: flow cytometry, mAb pre-incubated with 4 ug/ml HHLA2-mIgG2a; blockade of its binding to KIR3DL3-transfected 293T cells. As to the method:
as §3

T10 sequence (Q8N743 26-410 H321N limits assumed): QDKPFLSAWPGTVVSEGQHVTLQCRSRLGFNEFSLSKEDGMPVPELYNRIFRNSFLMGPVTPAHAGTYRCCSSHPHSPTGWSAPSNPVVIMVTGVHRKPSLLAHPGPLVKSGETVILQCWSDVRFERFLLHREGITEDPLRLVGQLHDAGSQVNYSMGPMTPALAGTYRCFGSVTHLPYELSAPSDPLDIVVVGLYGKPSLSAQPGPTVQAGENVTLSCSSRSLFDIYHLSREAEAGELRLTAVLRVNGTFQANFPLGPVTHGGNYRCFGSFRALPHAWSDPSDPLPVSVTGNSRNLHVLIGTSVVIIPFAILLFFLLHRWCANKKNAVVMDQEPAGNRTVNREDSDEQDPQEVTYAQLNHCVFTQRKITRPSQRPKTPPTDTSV
T4 sequence (P43626 22-348): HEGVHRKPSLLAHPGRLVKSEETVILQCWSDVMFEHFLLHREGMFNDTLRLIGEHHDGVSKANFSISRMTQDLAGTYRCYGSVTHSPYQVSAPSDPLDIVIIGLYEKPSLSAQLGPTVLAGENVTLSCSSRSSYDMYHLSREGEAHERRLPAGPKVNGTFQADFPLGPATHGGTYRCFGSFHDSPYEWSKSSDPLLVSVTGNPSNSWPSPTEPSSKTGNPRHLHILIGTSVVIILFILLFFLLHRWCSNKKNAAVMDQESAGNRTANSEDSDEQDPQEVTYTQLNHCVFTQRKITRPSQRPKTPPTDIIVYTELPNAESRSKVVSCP
T7 sequence (Q99706 22-377): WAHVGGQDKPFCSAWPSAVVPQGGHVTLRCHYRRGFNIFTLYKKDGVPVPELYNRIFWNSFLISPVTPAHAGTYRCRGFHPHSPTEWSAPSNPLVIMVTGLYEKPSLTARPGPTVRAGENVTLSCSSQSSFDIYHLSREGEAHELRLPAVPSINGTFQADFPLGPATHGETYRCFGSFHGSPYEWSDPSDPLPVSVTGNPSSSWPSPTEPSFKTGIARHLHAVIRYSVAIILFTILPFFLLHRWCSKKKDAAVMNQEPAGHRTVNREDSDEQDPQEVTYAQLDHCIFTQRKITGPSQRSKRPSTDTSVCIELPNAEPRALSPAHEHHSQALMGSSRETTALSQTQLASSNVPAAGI
T9 sequence (Q8NHK3 22-375): as the sequence (Q8N109 22-375) above, with N152D, G174S counted along it
T8 sequence (P43629 22-444): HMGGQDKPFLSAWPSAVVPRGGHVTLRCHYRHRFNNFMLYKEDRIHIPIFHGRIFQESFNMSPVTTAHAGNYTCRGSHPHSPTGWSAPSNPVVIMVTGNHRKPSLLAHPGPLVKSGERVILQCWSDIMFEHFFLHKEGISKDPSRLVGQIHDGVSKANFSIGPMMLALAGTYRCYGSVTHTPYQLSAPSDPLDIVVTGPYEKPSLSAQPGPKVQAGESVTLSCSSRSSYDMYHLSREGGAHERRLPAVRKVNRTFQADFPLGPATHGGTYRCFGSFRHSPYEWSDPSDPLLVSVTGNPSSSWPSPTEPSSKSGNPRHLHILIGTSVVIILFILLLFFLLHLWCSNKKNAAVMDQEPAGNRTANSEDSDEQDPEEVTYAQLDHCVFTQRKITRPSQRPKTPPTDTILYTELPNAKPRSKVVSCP

B1: human TMIGD2-human IgG1 fusion protein (R&D Systems catalog #8316-TR-050) (Fc fusion, UniProt Q96BF3 23-150, looked up)
chain: LSVQQGPNLLQVRQGSQATLVCQVDQATAWERLRVKWTKDGAILCQPYITNGSLSLGVCGPQGRLSWQAPSHLTLQLDPVSLNHSGAYVCWAAVEIPELEEAEGNITRLFVDPDDPTQNRNRIASFPG
notes: Bought reagent; also called TMIGD2-hIgG; TMIGD2-human Fc fusion protein; not shown: human IgG1 Fc portion of the bought fusion protein
Turning to B1, the binding result in assay [1] is on record as “binds”.
As to B2, the binding result in the assay with KIR2DL2, with KIR3DS1, in the assay with KIR2DL1, with KIR2DL5A, in the assay with KIR3DL2 and with KIR2DL4 was “no binding (tested: 20 ug/ml)” each time. For the same molecule, the binding result with KIR3DL1 was “no binding (tested: 20 ug/ml)”; with KIR2DL5B, “no binding (tested: 20 ug/ml)”; in [2] it was “binds”.

B3: human TMIGD2 expressed on transfected cells (293T, 300.19, HEK293 microarray, Jurkat) (receptor)
chain: LSVQQGPNLLQVRQGSQATLVCQVDQATAWERLRVKWTKDGAILCQPYITNGSLSLGVCGPQGRLSWQAPSHLTLQLDPVSLNHSGAYVCWAAVEIPELEEAEGNITRLFVDPDDPTQNRNRIASFPGFLFVLLGVGSMGVAAIVWGAWFWGRRSCQQRDSGNSPGNAFYSNVLYRPRGAPKKSEDCSGEGKDQRGQSIYSTSFPQPAPRQPHLASRPCPSPRPCPSPRPGHPVSMVRVSPRPSPTQQPRPKGFPKVGEE
notes: The cDNA used in 293T and 300.19 cells is not tied to an entry in words; also called CD28H; IGPR1
With B3, the binding result in assay [3] is “binds”.

B4: anti-HHLA2 monoclonal antibody 6F10 (antibody, IgG1, V domains shown)
VH: QVHLQQSAAELARPGASVKMSCKASGYTFTTYTMHWVKQRPGQGLEWIGHINPSSGYTDYNQKFKDKTTLTADKSSSTAYMQLNSLTSEDSAVYYCARHPWDSDYWGQGTTLTVSS
VL: DIQMTQSPASLSASVGETVTITCRASENIDSYLAWYQQKQGRSPQLLVYAATNLADGVPSRFSGSGSGTQFSLQINRLQSEDVARYYCQHYYITPFTFGSGTKLEIA
notes: also called 499.5.6F10.A4.10; MHC2557
Regarding B4, the IC50 (commonly the point on the concentration scale where inhibition reaches its midpoint) stood at 0.55 µg/mL in assay [4], 0.74 µg/mL in [7], 0.92 µg/mL in [11] and 0.9 µg/mL in [12]. In addition, the EC50 (usually the concentration at which the effect is half-maximal) in [5] is 0.25 µg/mL; in assay [6] it was 0.22 µg/mL; in assay [8], 0.25 µg/mL; in assay [9] it was 0.4 µg/mL; in assay [10], 0.22 µg/mL.

B5: anti-HHLA2 monoclonal antibody 2C4 (antibody, IgG1, V domains shown)
VH: EVHLQQSGPELEKPGVSVKISCKASGFSFTDYNMNWVKQSSGKSLEWIGNIDPYYGRINYNQKFKGKATLSVDKSSSTAYMHLKSLTSEDSAVYYCATGAYTSGYSWFAYWGQGTLVTVSA
VL: ENVLTQSPGIMAASLGEKVTMTCSASSSVSSSYLHWYQQRSGASPKPLIHRTSNLASGVPARFSGSGSGTSYSLTISSVEAEDDATYYCQQWSGYPFTFGSGTKLEIK
notes: also called 499.5.2C4.E6.6.8.1; MHC2562
With B5, the IC50 in assay [4] came out at 28.2 µg/mL; in assay [7], 0.97 µg/mL; in assay [11], 7.3 µg/mL; in assay [12], 0.52 µg/mL. The EC50 in assay [5] was 0.24 µg/mL; in assay [6], 0.29 µg/mL; in assay [8], 0.24 µg/mL; in assay [9], 0.47 µg/mL; in assay [10], 0.29 µg/mL.
